Assays:
[1] = test system: HeLa Kyoto; assay: melting temperature (median over replicates), in situ; higher = more thermally stable
[2] = test system: HeLa Kyoto; assay: solubility change mitosis vs G1/S (difference of NP-40 vs SDS log2 ratios) (log2 ratio difference); higher = more soluble in mitosis
[3] = test system: HeLa Kyoto; assay: thermal stability score vs G1/S (z-score of summed log2 fold changes over temperatures); higher = more thermally stable than in G1/S
[4] = test system: HeLa Kyoto; assay: solubility in G1/S (NP-40 vs SDS abundance) (log2 ratio); higher = more soluble; settings: cell cycle stage: G1/S
[5] = cell cycle stage: early G1 (4.5 h after nocodazole release)
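Wherever melting temperature (median over replicates), in situ is given: HeLa Kyoto cells synchronized by double thymidine or nocodazole block, proteins quantified by TMT10plex mass spectrometry, three independent biological replicates.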
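Wherever solubility change mitosis vs G1/S (difference of NP-40 vs SDS log2 ratios) is given: synchronized HeLa Kyoto cells (double thymidine block for G1/S, nocodazole release for mitosis), protein amounts in NP-40 versus SDS lysates quantified by mass spectrometry, three biological replicates.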
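Wherever solubility in G1/S (NP-40 vs SDS abundance) is given: HeLa Kyoto cells arrested at G1/S by double thymidine block, proteins quantified by TMT10plex mass spectrometry in mild NP-40 versus SDS extracts, three biological replicates.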
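Wherever thermal stability score vs G1/S (z-score of summed log2 fold changes over temperatures) is given: synchronized HeLa Kyoto cells, proteins quantified by TMT10plex mass spectrometry, three biological replicates, mitosis taken 0.5 h after nocodazole release, G1/S directly after double thymidine block.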

C5ORF22, sequence (chain, as listed by the source): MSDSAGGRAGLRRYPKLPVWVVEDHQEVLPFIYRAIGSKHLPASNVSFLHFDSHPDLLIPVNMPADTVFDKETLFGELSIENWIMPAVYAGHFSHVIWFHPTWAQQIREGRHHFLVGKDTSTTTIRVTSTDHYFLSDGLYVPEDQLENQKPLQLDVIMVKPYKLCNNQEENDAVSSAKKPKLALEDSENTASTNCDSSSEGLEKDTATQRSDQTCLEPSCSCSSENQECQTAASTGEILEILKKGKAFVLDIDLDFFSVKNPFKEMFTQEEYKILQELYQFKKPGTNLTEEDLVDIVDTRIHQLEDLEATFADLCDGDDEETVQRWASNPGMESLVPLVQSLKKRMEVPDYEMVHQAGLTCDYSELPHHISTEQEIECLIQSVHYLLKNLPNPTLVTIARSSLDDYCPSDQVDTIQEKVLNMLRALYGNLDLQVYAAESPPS
LARP4B, sequence (chain, as listed by the source): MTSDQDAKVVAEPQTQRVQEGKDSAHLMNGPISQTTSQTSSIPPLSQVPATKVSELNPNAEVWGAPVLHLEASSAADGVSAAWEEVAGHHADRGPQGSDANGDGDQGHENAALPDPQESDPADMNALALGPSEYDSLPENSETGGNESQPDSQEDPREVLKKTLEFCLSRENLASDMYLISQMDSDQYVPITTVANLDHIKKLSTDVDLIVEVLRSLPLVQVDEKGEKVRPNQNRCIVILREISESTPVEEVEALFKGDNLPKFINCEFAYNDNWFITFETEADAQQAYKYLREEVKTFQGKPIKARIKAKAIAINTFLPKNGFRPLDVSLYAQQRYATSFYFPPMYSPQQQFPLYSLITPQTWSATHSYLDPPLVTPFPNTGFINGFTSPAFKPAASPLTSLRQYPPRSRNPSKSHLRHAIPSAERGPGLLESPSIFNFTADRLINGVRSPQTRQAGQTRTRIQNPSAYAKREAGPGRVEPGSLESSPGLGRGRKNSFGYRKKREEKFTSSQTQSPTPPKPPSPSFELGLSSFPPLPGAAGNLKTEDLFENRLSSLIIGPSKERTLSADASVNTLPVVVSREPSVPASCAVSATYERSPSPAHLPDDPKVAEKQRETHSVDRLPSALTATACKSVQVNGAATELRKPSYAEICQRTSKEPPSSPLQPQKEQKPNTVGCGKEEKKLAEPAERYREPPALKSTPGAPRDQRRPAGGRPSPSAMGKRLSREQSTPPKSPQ
TSC2, sequence (chain, as listed by the source): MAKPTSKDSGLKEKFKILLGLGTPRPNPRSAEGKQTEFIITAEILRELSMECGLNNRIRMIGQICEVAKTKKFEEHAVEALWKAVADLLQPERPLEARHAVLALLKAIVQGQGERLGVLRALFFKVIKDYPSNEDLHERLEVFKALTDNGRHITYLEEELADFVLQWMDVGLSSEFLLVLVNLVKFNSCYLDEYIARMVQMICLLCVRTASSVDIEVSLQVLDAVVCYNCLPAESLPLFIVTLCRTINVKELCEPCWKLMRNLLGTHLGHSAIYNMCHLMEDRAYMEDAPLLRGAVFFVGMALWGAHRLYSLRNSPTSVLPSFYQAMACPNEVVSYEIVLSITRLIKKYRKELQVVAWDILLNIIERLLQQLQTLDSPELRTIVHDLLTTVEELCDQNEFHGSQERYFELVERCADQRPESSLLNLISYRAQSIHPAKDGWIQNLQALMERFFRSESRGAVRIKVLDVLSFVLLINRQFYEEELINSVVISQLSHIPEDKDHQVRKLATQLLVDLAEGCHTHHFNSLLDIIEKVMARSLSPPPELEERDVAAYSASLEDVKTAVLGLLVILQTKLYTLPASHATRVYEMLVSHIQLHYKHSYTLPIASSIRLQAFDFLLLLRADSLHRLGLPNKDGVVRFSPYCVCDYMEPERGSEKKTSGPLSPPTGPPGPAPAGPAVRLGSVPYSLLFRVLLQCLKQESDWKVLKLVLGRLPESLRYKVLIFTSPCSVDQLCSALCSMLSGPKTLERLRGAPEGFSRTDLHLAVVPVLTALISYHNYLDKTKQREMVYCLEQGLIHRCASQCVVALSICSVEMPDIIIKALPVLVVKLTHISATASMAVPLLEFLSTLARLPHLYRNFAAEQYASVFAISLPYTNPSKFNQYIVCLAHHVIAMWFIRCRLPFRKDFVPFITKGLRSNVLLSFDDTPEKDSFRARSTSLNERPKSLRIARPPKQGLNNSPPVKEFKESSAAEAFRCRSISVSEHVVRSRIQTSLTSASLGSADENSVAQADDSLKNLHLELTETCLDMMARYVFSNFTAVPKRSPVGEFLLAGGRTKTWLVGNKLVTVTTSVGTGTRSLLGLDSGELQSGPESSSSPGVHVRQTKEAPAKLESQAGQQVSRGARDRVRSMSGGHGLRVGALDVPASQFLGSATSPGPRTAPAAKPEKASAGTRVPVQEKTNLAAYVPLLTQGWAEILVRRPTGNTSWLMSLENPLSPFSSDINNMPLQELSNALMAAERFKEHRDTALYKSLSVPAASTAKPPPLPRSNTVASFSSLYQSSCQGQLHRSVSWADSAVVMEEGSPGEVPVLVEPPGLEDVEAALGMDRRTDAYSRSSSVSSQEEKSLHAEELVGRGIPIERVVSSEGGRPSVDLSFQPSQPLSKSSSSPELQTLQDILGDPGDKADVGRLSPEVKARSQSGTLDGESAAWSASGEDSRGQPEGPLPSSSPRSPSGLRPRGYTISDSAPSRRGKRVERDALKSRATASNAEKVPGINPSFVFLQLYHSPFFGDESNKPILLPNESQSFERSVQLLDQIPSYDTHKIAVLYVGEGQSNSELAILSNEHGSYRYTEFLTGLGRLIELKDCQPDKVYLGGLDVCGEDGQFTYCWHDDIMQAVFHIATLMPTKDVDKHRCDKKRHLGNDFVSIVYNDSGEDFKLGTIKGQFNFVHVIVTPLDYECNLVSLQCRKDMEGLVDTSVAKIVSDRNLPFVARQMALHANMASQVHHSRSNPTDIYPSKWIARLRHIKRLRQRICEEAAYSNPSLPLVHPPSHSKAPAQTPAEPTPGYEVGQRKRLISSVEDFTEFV

Substance	melting temperature ([1]; cell cycle stage: G1/S) [°C]	melting temperature ([1]; cell cycle stage: mitosis) [°C]	solubility change mitosis (log2) [2]	thermal stability score [3, 5]	thermal stability score ([3]; cell cycle stage: mitosis)	solubility in G1/S (log2) [4]
MASVAAARAVPVGSGLRGLQRTLPLVVILGATGTGKSTLALQLGQRLGGEIVSADSMQVYEGLDIITNKVSAQEQRICRHHMISFVDPLVTNYTVVDFRNRATALIEDIFARDKIPIVVGGTNYYIESLLWKVLVNTKPQEMGTEKVIDRKVELEKEDGLVLHKRLSQVDPEMAAKLHPHDKRKVARSLQVFEETGISHSEFLHRQHTEEGGGPLGGPLKFSNPCILWLHADQAVLDERLDKRVDDMLAAGLLEELRDFHRRYNQKNVSENSQDYQHGIFQSIGFKEFHEYLITEGKCTLETSNQLLKKGIEALKQVTKRYARKQNRWVKNRFLSRPGPIVPPVYGLEVSDVSKWEESVLEPALEIVQSFIQGHKPTATPIKMPYNEAENKRSYHLCDLCDRIIIGDREWAAHIKSKSHLNQLKKRRRLDSDAVNTIESQSVSPDHNKEPKEKGSPGQNDQELKCSV [TRIT1]	53.3	49.1	-0.137	-0.00673	0.208	0.0861
MEQLSSANTRFALDLFLALSENNPAGNIFISPFSISSAMAMVFLGTRGNTAAQLSKTFHFNTVEEVHSRFQSLNADINKRGASYILKLANRLYGEKTYNFLPEFLVSTQKTYGADLASVDFQHASEDARKTINQWVKGQTEGKIPELLASGMVDNMTKLVLVNAIYFKGNWKDKFMKEATTNAPFRLNKKDRKTVKMMYQKKKFAYGYIEDLKCRVLELPYQGEELSMVILLPDDIEDESTGLKKIEEQLTLEKLHEWTKPENLDFIEVNVSLPRFKLEESYTLNSDLARLGVQDLFNSSKADLSGMSGARDIFISKIVHKSFVEVNEEGTEAAAATAGIATFCMLMPEENFTADHPFLFFIRHNSSGSILFLGRFSSP [SERPINB1]	53.2	53.2	-0.165	1.35	-2.02	0.121
TSC2	49.6	50.9	-0.0844	0.00265	0.786	-0.16
MRLALLWALGLLGAGSPLPSWPLPNIGGTEEQQAESEKAPREPLEPQVLQDDLPISLKKVLQTSLPEPLRIKLELDGDSHILELLQNRELVPGRPTLVWYQPDGTRVVSEGHTLENCCYQGRVRGYAGSWVSICTCSGLRGLVVLTPERSYTLEQGPGDLQGPPIISRIQDLHLPGHTCALSWRESVHTQKPPEHPLGQRHIRRRRDVVTETKTVELVIVADHSEAQKYRDFQHLLNRTLEVALLLDTFFRPLNVRVALVGLEAWTQRDLVEISPNPAVTLENFLHWRRAHLLPRLPHDSAQLVTGTSFSGPTVGMAIQNSICSPDFSGGVNMDHSTSILGVASSIAHELGHSLGLDHDLPGNSCPCPGPAPAKTCIMEASTDFLPGLNFSNCSRRALEKALLDGMGSCLFERLPSLPPMAAFCGNMFVEPGEQCDCGFLDDCVDPCCDSLTCQLRPGAQCASDGPCCQNCQLRPSGWQCRPTRGDCDLPEFCPGDSSQCPPDVSLGDGEPCAGGQAVCMHGRCASYAQQCQSLWGPGAQPAAPLCLQTANTRGNAFGSCGRNPSGSYVSCTPRDAICGQLQCQTGRTQPLLGSIRDLLWETIDVNGTELNCSWVHLDLGSDVAQPLLTLPGTACGPGLVCIDHRCQRVDLLGAQECRSKCHGHGVCDSNRHCYCEEGWAPPDCTTQLKATSSLTTGLLLSLLVLLVLVMLGASYWYRARLHQRLCQLKGPTCQYRAAQSGPSERPGPPQRALLARGTKQASALSFPAPPSRPLPPDPVSKRLQAELADRPNPPTRPLPADPVVRSPKSQGPAKPPPPRKPLPADPQGRCPSGDLPGPGAGIPPLVVPSRPAPPPPTVSSLYL [ADAM15]	54.2	55.4	-0.0652	0.908	2.18	0.293
C5ORF22	50.7		-0.166	-0.108	1.41	0.303
MELRVGNKYRLGRKIGSGSFGDIYLGANIASGEEVAIKLECVKTKHPQLHIESKFYKMMQGGVGIPSIKWCGAEGDYNVMVMELLGPSLEDLFNFCSRKFSLKTVLLLADQMISRIEYIHSKNFIHRDVKPDNFLMGLGKKGNLVYIIDFGLAKKYRDARTHQHIPYRENKNLTGTARYASINTHLGIEQSRRDDLESLGYVLMYFNLGSLPWQGLKAATKRQKYERISEKKMSTPIEVLCKGYPSEFSTYLNFCRSLRFDDKPDYSYLRQLFRNLFHRQGFSYDYVFDWNMLKFGAARNPEDVDRERREHEREERMGQLRGSATRALPPGPPTGATANRLRSAAEPVASTPASRIQPAGNTSPRAISRVDRERKVSMRLHRGAPANVSSSDLTGRQEVSRIPASQTSVPFDHLGK [CSNK1E]	49.7	49	0.102	0.572	0.264	-0.212
MCDFTEDQTAEFKEAFQLFDRTGDGKILYSQCGDVMRALGQNPTNAEVLKVLGNPKSDEMNVKVLDFEHFLPMLQTVAKNKDQGTYEDYVEGLRVFDKEGNGTVMGAEIRHVLVTLGEKMTEEEVEMLVAGHEDSNGCINYEAFVRHILSG [MYL6]	51.8	51.7	0.21	-3.33	-1.53	-0.12
MSRLKRIAGQDLRAGFKAGGRDCGTSVPQGLLKAARKSGQLNLSGRNLSEVPQCVWRINVDIPEEANQNLSFGATERWWEQTDLTKLIISNNKLQSLTDDLRLLPALTVLDIHDNQLTSLPSAIRELENLQKLNVSHNKLKILPEEITNLRNLKCLYLQHNELTCISEGFEQLSNLEDLDLSNNHLTTVPASFSSLSSLVRLNLSSNELKSLPAEINRMKRLKHLDCNSNLLETIPPELAGMESLELLYLRRNKLRFLPEFPSCSLLKELHVGENQIEMLEAEHLKHLNSILVLDLRDNKLKSVPDEIILLRSLERLDLSNNDISSLPYSLGNLHLKFLALEGNPLRTIRREIISKGTQEVLKYLRSKIKDDGPSQSESATETAMTLPSESRVNIHAIITLKILDYSDKQATLIPDEVFDAVKSNIVTSINFSKNQLCEIPKRMVELKEMVSDVDLSFNKLSFISLELCVLQKLTFLDLRNNFLNSLPEEMESLVRLQTINLSFNRFKMLPEVLYRIFTLETILISNNQVGSVDPQKMKMMENLTTLDLQNNDLLQIPPELGNCVNLRTLLLDGNPFRVPRAAILMKGTAAILEYLRDRIPT [LRRC40]	49.2	49.2	-0.167	0.285	1.77	0.322
LARP4B	50.8	50	0.533	-0.656	-1.1	-0.183
MAAEIHSRPQSSRPVLLSKIEGHQDAVTAALLIPKEDGVITASEDRTIRVWLKRDSGQYWPSIYHTMASPCSAMAYHHDSRRIFVGQDNGAVMEFHVSEDFNKMNFIKTYPAHQNRVSAIIFSLATEWVISTGHDKCVSWMCTRSGNMLGRHFFTSWASCLQYDFDTQYAFVGDYSGQITLLKLEQNTCSVITTLKGHEGSVACLWWDPIQRLLFSGASDNSIIMWDIGGRKGRTLLLQGHHDKVQSLCYLQLTRQLVSCSSDGGIAVWNMDVSREEAPQWLESDSCQKCEQPFFWNIKQMWDTKTLGLRQHHCRKCGQAVCGKCSSKRSSYPVMGFEFQVRVCDSCYDSIKDEDRTSLATFHEGKHNISHMSMDIARGLMVTCGTDRIVKIWDMTPVVGCSLATGFSPH [WDFY1]	54.2	54.5	-0.0745	1.13	-1.04	-0.607
MWIPVVGLPRRLRLSALAGAGRFCILGSEAATRKHLPARNHCGLSDSSPQLWPEPDFRNPPRKASKASLDFKRYVTDRRLAETLAQIYLGKPSRPPHLLLECNPGPGILTQALLEAGAKVVALESDKTFIPHLESLGKNLDGKLRVIHCDFFKLDPRSGGVIKPPAMSSRGLFKNLGIEAVPWTADIPLKVVGMFPSRGEKRALWKLAYDLYSCTSIYKFGRIEVNMFIGEKEFQKLMADPGNPDLYHVLSVIWQLACEIKVLHMEPWSSFDIYTRKGPLENPKRRELLDQLQQKLYLIQMIPRQNLFTKNLTPMNYNIFFHLLKHCFGRRSATVIDHLRSLTPLDARDILMQIGKQEDEKVVNMHPQDFKTLFETIERSKDCAYKWLYDETLEDR [TFB2M]	50.5	50.7	-0.038	0.218	1	0.194
MGLADASGPRDTQALLSATQAMDLRRRDYHMERPLLNQEHLEELGRWGSAPRTHQWRTWLQCSRARAYALLLQHLPVLVWLPRYPVRDWLLGDLLSGLSVAIMQLPQGLAYALLAGLPPVFGLYSSFYPVFIYFLFGTSRHISVGTFAVMSVMVGSVTESLAPQALNDSMINETARDAARVQVASTLSVLVGLFQVGLGLIHFGFVVTYLSEPLVRGYTTAAAVQVFVSQLKYVFGLHLSSHSGPLSLIYTVLEVCWKLPQSKVGTVVTAAVAGVVLVVVKLLNDKLQQQLPMPIPGELLTLIGATGISYGMGLKHRFEVDVVGNIPAGLVPPVAPNTQLFSKLVGSAFTIAVVGFAIAISLGKIFALRHGYRVDSNQELVALGLSNLIGGIFQCFPVSCSMSRSLVQESTGGNSQVAGAISSLFILLIIVKLGELFHDLPKAVLAAIIIVNLKGMLRQLSDMRSLWKANRADLLIWLVTFTATILLNLDLGLVVAVIFSLLLVVVRTQMPHYSVLGQVPDTDIYRDVAEYSEAKEVRGVKVFRSSATVYFANAEFYSDALKQRCGVDVDFLISQKKKLLKKQEQLKLKQLQKEEKLRKQAASPKGASVSINVNTSLEDMRSNNVEDCKMMQVSSGDKMEDATANGQEDSKAPDGSTLKALGLPQPDFHSLILDLGALSFVDTVCLKSLKNIFHDFREIEVEVYMAACHSPVVSQLEAGHFFDASITKKHLFASVHDAVTFALQHPRPVPDSPVSVTRL [SLC26A6]	56.6	56	-0.0476	-1.84	-2.56	-0.00184
MAPNIYLVRQRISRLGQRMSGFQINLNPLKEPLGFIKVLEWIASIFAFATCGGFKGQTEIQVNCPPAVTENKTVTATFGYPFRLNEASFQPPPGVNICDVNWKDYVLIGDYSSSAQFYVTFAVFVFLYCIAALLLYVGYTSLYLDSRKLPMIDFVVTLVATFLWLVSTSAWAKALTDIKIATGHNIIDELPPCKKKAVLCYFGSVTSMGSLNVSVIFGFLNMILWGGNAWFVYKETSLHSPSNTSAPHSQGGIPPPTGI [SYPL1]	56.1	56.9	0.0843	-3.54	-3.06	-0.227
MACAAARSPADQDRFICIYPAYLNNKKTIAEGRRIPISKAVENPTATEIQDVCSAVGLNVFLEKNKMYSREWNRDVQYRGRVRVQLKQEDGSLCLVQFPSRKSVMLYAAEMIPKLKTRTQKTGGADQSLQQGEGSKKGKGKKKK [SRP19]	50.8	50.8	0.161	0.816	-0.116	0.299
DHRS1	50.7	51	0.0211	0.897	0.418	0.111
MAQSRDGGNPFAEPSELDNPFQDPAVIQHRPSRQYATLDVYNPFETREPPPAYEPPAPAPLPPPSAPSLQPSRKLSPTEPKNYGSYSTQASAAAATAELLKKQEELNRKAEELDRRERELQHAALGGTATRQNNWPPLPSFCPVQPCFFQDISMEIPQEFQKTVSTMYYLWMCSTLALLLNFLACLASFCVETNNGAGFGLSILWVLLFTPCSFVCWYRPMYKAFRSDSSFNFFVFFFIFFVQDVLFVLQAIGIPGWGFSGWISALVVPKGNTAVSVLMLLVALLFTGIAVLGIVMLKRIHSLYRRTGASFQKAQQEFAAGVFSNPAVRTAAANAAAGAAENAFRAP [SCAMP3]	58.2	57.8	-0.173	-1.12	0.091	0.19
ATG3	54.3	54.1	-0.0379	0.129	-0.694	0.11
UBR2	49.9	49.8	-0.184	0.798	1.58	-0.361

Source: the supplement of paper PMC5998384
